For the data set, the target named is T1, PGL-3 (1-633)-6xHis-mEGFP (ΔRGG) (Caenorhabditis elegans, UniProt G5EBV6 1-633).
T1 sequence: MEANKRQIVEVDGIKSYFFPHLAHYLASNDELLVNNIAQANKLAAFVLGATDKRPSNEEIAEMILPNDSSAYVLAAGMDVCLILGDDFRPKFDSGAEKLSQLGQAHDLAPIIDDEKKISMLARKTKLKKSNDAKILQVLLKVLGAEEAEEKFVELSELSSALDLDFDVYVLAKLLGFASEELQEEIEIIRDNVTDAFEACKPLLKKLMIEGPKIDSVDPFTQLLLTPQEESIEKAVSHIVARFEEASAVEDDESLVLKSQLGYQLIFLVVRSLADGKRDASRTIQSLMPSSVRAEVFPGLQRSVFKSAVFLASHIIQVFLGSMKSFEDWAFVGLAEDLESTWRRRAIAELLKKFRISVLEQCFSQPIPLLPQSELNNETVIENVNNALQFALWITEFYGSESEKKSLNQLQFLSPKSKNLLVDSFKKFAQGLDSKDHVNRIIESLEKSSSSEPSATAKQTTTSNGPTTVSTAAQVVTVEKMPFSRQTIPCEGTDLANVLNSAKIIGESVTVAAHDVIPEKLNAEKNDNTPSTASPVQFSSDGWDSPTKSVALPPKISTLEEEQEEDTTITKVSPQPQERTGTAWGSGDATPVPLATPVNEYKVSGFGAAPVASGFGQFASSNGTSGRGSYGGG
The data set is described as follows: filter binding.

Data on 1 molecule can be found in PMC5034880.

Take GUUGUUGUUGUUGUUGUUGUUGUUGUUGUUAAAAAAAAAA (ssRNA) [(GUU)10A10 RNA]: the binding signal was > 60 fold weaker than full-length PGL-3.
